What was measured:
[1] = molecular target: T1, hu4-1BBIg fusion protein (extracellular domain of H4-1BB fused to the constant domains of a human IgG1 … (human, UniProt Q07011 24-186; P01857 99-330 = IgG part); assay: SPR BIAcore 3000, antibody 10-100 nM over low-density immobilized H4-1BB (557 RU), global fit, Bivalent Analyte Model (Ka1)
T1 construct: extracellular domain;domain: constant domains of a human IgG1 antibody; also called immobilized H4-1BB; Human 4-1BB receptor; not shown: thrombin cleavage site between the 4-1BB and Ig portions
Description: (§1) These studies were carried out on a BIAcore 3000 instrument (BIAcore Inc., Piscataway, N.J.). Dilutions of the antibodies were injected under identical conditions over sensorchip surfaces of immobilized H4-1BB.
(§2) Human 4-1BB receptor was immobilized covalently to a low density on a carboxy-methylated dextran surface of a BIAcore sensorchip (BIAcore Inc., Piscataway, N.J.). Through primary amino groups the fusion protein, injected at 2 μg/mL in 10 mM acetate buffer, pH 5.0, bind to an EDC/NHS-activated surface. […] After regenerating with 10 mM glycine, pH 2.0 the surface was ready for binding studies. Antibodies 39E3 and hu39E3.G4 were diluted to concentrations between 10 nM and 100 nM using HBS-EP buffer. All mAb dilutions were injected over two flow cells (FC) at a flow rate of 25 μl/minute. FC1 served as a negative control, FC2 had low density of human 4-1BB (557 RU). Bound anti-human 4-1BB mAbs were removed by regeneration with 10 mM Glycine pH 1.75.
(§3) Kinetic parameters were calculated with BIAevaluation program (version 3.1) (BIAcore Inc., Piscataway, N.J.). A global curve fit analysis was performed using a Bivalent Analyte Model (BIAcore Inc. Piscataway, N.J.). […] The binding affinities for the parental mAb, 39E3, and the humanized anti-H4-1BB mAb are shown below in Table 3.

[2] = molecular target: T1, hu4-1BBIg fusion protein (extracellular …); assay: SPR BIAcore 3000, antibody 10-100 nM over low-density immobilized H4-1BB (557 RU), global fit, Bivalent Analyte Model (KD1)
Description: as §1, §2, §3

[3] = molecular target: T1, hu4-1BBIg fusion protein (extracellular …); assay: SPR BIAcore 3000, antibody 10-100 nM over low-density immobilized H4-1BB (557 RU), global fit, Bivalent Analyte Model (KA1)
Description: as §1, §2, §3

[4] = molecular target: T1, hu4-1BBIg fusion protein (extracellular …); assay: SPR BIAcore 3000, antibody 10-100 nM over low-density immobilized H4-1BB (557 RU), global fit, Bivalent Analyte Model (Kd1)
Description: as §1, §2, §3

T1 sequence (Q07011 other isoform, or with tags, fused parts or gaps): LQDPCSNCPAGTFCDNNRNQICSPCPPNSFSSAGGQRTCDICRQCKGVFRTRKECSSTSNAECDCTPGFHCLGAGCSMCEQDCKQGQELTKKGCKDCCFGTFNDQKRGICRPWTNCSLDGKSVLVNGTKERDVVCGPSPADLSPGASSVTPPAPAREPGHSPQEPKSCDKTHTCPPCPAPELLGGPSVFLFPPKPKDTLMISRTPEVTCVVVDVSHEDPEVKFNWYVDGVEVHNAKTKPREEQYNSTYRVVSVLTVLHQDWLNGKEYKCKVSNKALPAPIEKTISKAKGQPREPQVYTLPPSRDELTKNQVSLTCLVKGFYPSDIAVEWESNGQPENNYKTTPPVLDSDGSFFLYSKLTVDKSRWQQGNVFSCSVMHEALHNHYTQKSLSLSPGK

B1: mAb 39E3 (parental rat anti-human 4-1BB monoclonal antibody) (antibody, V domains shown)
VH: EVQLVESGGGLVKPGASLKLSCVASGFTFSDYWMSWVRQTPGKTMEWIGDIKNDGSYTNYAPSLTNRFTISRDNARSTLYLQMNNVRSEDTATYYCTRELTGT
VL: DIIMTQSPFSLAVSEGEMVTMNCKSSQSLLSSGNQKNYLAWYQQKPGQPPELLIYYASTRQSGVPDRFIGSGSGTDFLTLTISDVQAEDLADYYCLQYDRYPFT
notes: constant regions are not; also called parental antibody; parental mAb
[1]
  kon: 7070 M⁻¹ s⁻¹
[2]
  Kd: 6.7 nM
[3]
  Ka: 1.48e+08 M⁻¹
[4]
  koff: 4.77e-05 s⁻¹

B2: hu39E3.G4 (humanized 39E3, IgG4) (antibody, V domains shown)
VH: EVQLVESGGGLVQPGGSLRLSCAASGFTFSDYWMSWVRQAPGKGLEWVADIKNDGSYTNYAPSLTNRFTISRDNAKNSLYLQMNSLRAEDTAVYYCARELTGTWGQGTMVTVSS
VL: DIVMTQSPDSLAVSLGERATINCKSSQSLLSSGNQKNYLAWYQQKPGQPPKLLIYYASTRQSGVPDRFSGSGSGTDFTLTISSLQAEDVAVYYCLQYDRYPFTFGQGTKLEIKR
notes: Humanized IgG4 with a hinge mutation (after Angal et al.), made in CHO DG-44; also called humanized 39E3.G4 antibody; humanized anti-H4-1BB mAb
[1]
  kon: 4740 M⁻¹ s⁻¹
[2]
  Kd: 5.3 nM
[3]
  Ka: 1.87e+08 M⁻¹
[4]
  koff: 2.53e-05 s⁻¹

Reference: patent US20040105855A1 (Bristol-Myers Squibb, published 2004)
